Test results from the nanobody polyreactivity screen of Harvey et al. (2022).

Experiment: yeast display, Sf9 membrane polyspecificity reagent, FACS + sequencing; frameworks hold sequencing errors
Procedure, shortened: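 Synthetic nanobody libraries on Saccharomyces cerevisiae BJ5465 were galactose-induced for 36–48 hours, stained 1 hour at 4 °C with 10% biotinylated, detergent-solubilized Sf9 membrane reagent and enriched on streptavidin microbeads. FACS then separated cells into low and high (top ~1%) gates by anti-HA (expression) and streptavidin (reagent binding) fluorescence. Genes were colony-PCR amplified, MiSeq 2 × 250 sequenced and CDR-length filtered. A clone's polyreactivity label is that of its gate of origin.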

Row | Sequence | polyreactivity (PSR sort gate)
1 | QVQLVESGGGLVQAGGSLRLSSAASGFIFTYYAMGWYRQAPGKERELVAVITRGDSTYYADSVKGRFTISRDNAKNTVYLQMNSLKPEDTAVYYCAARGYFGWSGYSVPSTAYGYWGQGTQVTVSS | high polyreactivity
2 | QVQLVESGGGLVQAGGSLRLSSAASGFTFRGYGMGWYRQAPAKERELVAAITSSGGSTYYADSVKGRFTISRDNAKNTVYLQMNSLKPEDTAVYYCAADRYTRYRYNYWGQGTQVTVSS | high polyreactivity
3 | QVQLVESGGGLVQAGGSLRLSSAASGFTFVSYAMGWYRQAPGKERELVASISKRGGTTYYADSVKGRFTISRDNAKKTVFLQMNSLKPDDTAVYYCNARDTRRYVTYDSGYDYWGQGTQVTVSS | high polyreactivity
4 | QVQLVESGGGLVQAGGSLRLSSAASGFTFYWYAMGWYRQAPGKEREFVAAIDQSGGSTYYADSVKGRFTISRDNAKNTVYLQMNSLKPEDTAVYYCAARYILWDGYSWTEFDYWGQGTQVTVSS | low polyreactivity
5 | QVQLVESGGGLVQAGGSLRLSSAASGGIFSSYAMGWYRQAPGKERELVAAISGSGGRTYYADSVKGRFTISRDNAKNTVYLQMNSLKPEDTSVYYCAAYPVNRVDYRYDYWGQGTQVTVSS | high polyreactivity
6 | QVQLVESGGGLVQAGGSLRLSSAASGGIFWYYTMGWYRQAPGKERELVAAISWSGGRTYYADSVKGRFTISRDNAKNTVYLQMNSLKPEDTAVYYCAANFRGVLGWYHYEYWGQGTQVTVSS | high polyreactivity
7 | QVQLVESGGGLVQAGGSLRLSSAASGGSFKRYVMVWYRQAPGKERELVAAITWSGGSTYYADSVKGRFTISRDNAKNTVYLQMNSLKPEDTAVYYCNVVTRWVTAAGYDYWGQGTQVTVSS | high polyreactivity
8 | QVQLVESGGGLVQAGGSLRLSSAASGGTFGGYTRRWSRQAPGKERELVAAITRRGSSTFYADSVKGRFTISRDNAKKTVYLQMNSLKPEDTAVYYCAARYIVYLRTQSERYNSYDYWAQGTQVTVSS | high polyreactivity
9 | QVQLVESGGGLVQAGGSLRLSSAASGIFRWNTKGWYRQAPRKERELVATISWGGGTTYYADSVKGRFTISRDNAKNTVYLQMNSLKPEDTAVYYCAKVYAVRIGMRYSYWGHGTQVTVSS | low polyreactivity
10 | QVQLVESGGGLVQAGGSLRLSSAASGITFYFNAMRWYRQATGKVSEFVAAISFSGGGTYYADSVKGRFTISRDNAKITDYLDMNSLKPADTAVYYCNADYGRGTLRSIYDYWGQGTQVTVTS | low polyreactivity
11 | QVQLVESGGGLVQAGGSLRLSSAASGITIRYNDMGWYRQAPGKERELVAAITFSGGSTYYPDSVKGRFTISRDNAMNTVYLQMNSLKPEDTAVYYCAKLGSTSSRGNYDYWGQGTQVTVSS | low polyreactivity
12 | QVQLVESGGGLVQAGGSLRLSSAASGITSYGYAMGWNRQAPGKERELVASISWTGGNTYADSVKGRFTISRDNAKNTVYLQMNSLFPEDTAVYYCNAGRSWDYWYGYDYWGQGTHVTVSS | low polyreactivity
13 | QVQLVESGGGLVQAGGSLRLSSAASGITYYGYAMGWYRQAPGKERELVAAISKSGGSTHYADSVKGRFTISRDNAINTVYLQMYRLKPEDTAVYYCAAAYWTRLRRMDYWGQGTQVTVSS | low polyreactivity
14 | QVQLVESGGGLVQAGGSLRLSSAASGLILYSYAMGWYRQAPGKERELVADISSGGITNYADSVKGRFTISRDNAKNTVYLQMNSLKPEDTAVYYCAADTRPVNYILYDYWGQGTQVTVSS | low polyreactivity
15 | QVQLVESGGGLVQAGGSLRLSSAASGLTFAYYTMGWYRQAPGKERELVAAISRSGSGTYYADSVKGRFTISRDNAKNTVYLQMNSLKPEDTAVYYCATRYYLKFLDGYNYWGQGTQVTVSS | high polyreactivity
16 | QVQLVESGGGLVQAGGSLRLSSAASGLTFESYAIGWYRQAPWKERELVAAISFSCGSTNYADAVKGRFTISRDNAKNTVYLQLNSLKPEDTAVYYCAAEYGSPRGTGYDSWGQGTQVTVSS | high polyreactivity
17 | QVQLVESGGGLVQAGGSLRLSSAASGNIFVYYAKGLYRHAPGKERELVAAISKRGGSTYYADSVKGRFTISRDNAKNTVYLQMNSLKPEDTAVYYCAALGHVDDSIYDYWGQGTQLTVSS | high polyreactivity
18 | QVQLVESGGGLVQAGGSLRLSSAASGRIFEGYAMGWYRQAPGKERELVAAISSGGSTYYADSVKGRFTISRDNAKNTVYLQMNSLKPEDTAVYYCNAAHSVVSHGPGAGLEMDYWGQGTQVTVSS | low polyreactivity
19 | QVQLVESGGGLVQAGGSLRLSSAASGRIFGVYAMGWYRQAPGKERELVAAITRSGGSTYYADSVKGRFTISRDNAKNTDYLQMKSLKPEDTAVYYCNRDFRGLAYSDRYDYWGQVTQVTVSS | low polyreactivity
20 | QVQLVESGGGLVQAGGSLRLSSAASGRIFHPYAMGWYRPAPGQERELVAAITNSGGITYADSVKGRFTISRGNAKNTVYLQMNSLKPEDTAVYYCNTATNRFHYKYRKPYDYWGQGTQVTVSS | low polyreactivity
21 | QVQLVESGGGLVQAGGSLRLSSAASGRIFKRYTMGSYRQAPGKERELVAANTKRADRTNYADSVNGRFTISRDNAKNTVYLQMNSLKAVDTAVYYCNAEGQNDHPSNGYISYNYDYWGQGTQVTVSS | low polyreactivity
22 | QVQLVESGGGLVQAGGSLRLSSAASGRIFQLYTMGWYRQAPGKEREMVAAITSGTSTSYADSVKGRFTISRDNAKNSVYLQMNSLKPEDTAVYYCNKGSVSYCSVFVPYESDYWGQGTQVTVSS | low polyreactivity

Row | Sequence | polyreactivity (PSR sort gate)
23 | QVQLVESGGGLVQAGGSLRLSSAASGRIFRINAMGWYRQAPGKERELVADITSGGSTNYADSVKGRFTISRDNAKNTVYLQMNSLKPEDTAVYYCAAAYVTYRTRLDYWGQGTQVTVSS | low polyreactivity
24 | QVQLVESGGGLVQAGGSLRLSSAASGRIFRPYDMGWYRQAPGKERELVAAITQSGGITSYADSVKGRFTISRDNAMNTVYLQMNSLTPEDTAVYYCASTSRYTRSHYDWYDYWGQGTQVTVSS | low polyreactivity
25 | QVQLVESGGGLVQAGGSLRLSSAASGRIFRRNTMGWYRQAPGKERELVAAITYSGGSTYYADSVKGRFTISRDNAKNTVYLQMNSLKPEDTAVYYCAADTGFYYWYDYWGQGTQVTVSS | low polyreactivity
26 | QVQLVESGGGLVQAGGSLRLSSAASGRIFSDNVMGWYRQAPGKERELVATITSTGGTYYADSVKGRFTISRDNAKNTVYLQMNSLKPEDTAVYYCNKATLADWWLYPRYNYWGQGTQVTVSS | low polyreactivity
27 | QVQLVESGGGLVQAGGSLRLSSAASGRIFSINVMGWYRHAPGKERELVAAISKRGGSTYYADSVKGRFTISRDNAKNTVYLQMNSLKPEDTAVYYCAVDRYSTDRVKTSYGYDYWGQGTQVTVSS | high polyreactivity
28 | QVQLVESGGGLVQAGGSLRLSSAASGRIFTINAMGWYRQAPGKERELFASSRSTGGSTYYADSVKGRFTISRDNAKNTFYLQMYSLKPVDTAVYYCDAQYANSIDYRSSYRRDYWGQGTQVTVSS | low polyreactivity
29 | QVQLVESGGGLVQAGGSLRLSSAASGRIFYFNARGWYRQAPGKARELVAGISSGGSTDYADSVKGRFTISRDNAKNTVDLQMNSLKPEDTAVYYCATRRSRYSYSGYWGQATQVTVSS | high polyreactivity
30 | QVQLVESGGGLVQAGGSLRLSSAASGRIFYRNAMGWYRQAPGKERELVASITSGGRTNYADSVKGRFTFSRDNAKNTVYLHMNSLKPEDTAVYYCAAPPPYSVRTFRFYYWGQGTQVTVSA | high polyreactivity
31 | QVQLVESGGGLVQAGGSLRLSSAASGRTFEGYAMGWYRQAPGKERELVAAISGSSGSTYYADSVKGRFTISRDNAKNTVYLQMNSLKPEDTAVYYCNADYDWPGGSDYWGQGTQVTVSS | low polyreactivity
32 | QVQLVESGGGLVQAGGSLRLSSAASGRTFFGYAMGCYRQAPGTERELVAVISYSDGSTYYADSVKGRFTISRDNAKNTVYLQMNSLKPEDTAVYYCNARSRVGNSGADYDYWGQGTQETVSS | low polyreactivity
33 | QVQLVESGGGLVQAGGSLRLSSAASGRTFGFYAMGCYRQAHGKERELVATISSSGGSTYYADSVKGRFTISRDNAKNTVYLQMNRLTPEDTAVYYCAKVVSVWRSHYIGDYWGQGSQVTVSS | low polyreactivity
34 | QVQLVESGGGLVQAGGSLRLSSAASGRTFGKYAMGWYRQAPGKESELVAAITNSGGSTYYADSVKGRFTISRDNAKNTVYLQMISLKPEDTAVYYCNRLGYRGPSILNHMGYWGQGTQVTVSS | high polyreactivity
35 | QVQLVESGGGLVQAGGSLRLSSAASGRTFPTYTIGGYRQAPGKERELVAAITRGGSTKYADSVKGRFTISRDNAKNTVYLQMNSLKPEDTAVYYCAAVYRYRHSFAYYRHEMDYWGQGTQVTVSS | low polyreactivity
36 | QVQLVESGGGLVQAGGSLRLSSAASGRTFSRYVMGWSRQAPGKERELVATISRSGGSTFYADSVKGRFTISRDNAKNTVYLQMNSLKPEDTAVYYCNKKVQGYQVTYGYWGQGTQVTVSS | high polyreactivity
37 | QVQLVESGGGLVQAGGSLRLSSAASGRTFWNNAMGWYRQAPGKERELVAAITSGGRTNYADSVKGRFTISRDNAKNTVYLQMNSLKPEDTAVYYCAAVGYVIYDYWVQGTQVTVSS | low polyreactivity
38 | QVQLVESGGGLVQAGGSLRLSSAASGRTFYFYAMGWYRQAPGKERELVADIRGITGSTYYADSVKGRFTISRDNAKNTVYLQMNSLKPEDTAVYYCNAYPYIARAPYEYWGQGTQVTVSS | high polyreactivity
39 | QVQLVESGGGLVQAGGSLRLSSAASGRTFYSNAMGWSRQAPGKERELVAAITSTDDSTYYADSVKGRFTISRDNAKNTVYLQMNSLKPEDTAVYYCNTDGLIAIRCVWWVEYDYWGQGTQVTVSS | low polyreactivity
40 | QVQLVESGGGLVQAGGSLRLSSAASGRTGVNAMGWDRHAPGKERELGAAINNGDSTYYADSVKGRFTISRDNAKNTVYLQMNSLTPEDTAVYDCAAGLDEGDYWQESDYWGQGTQVTVSS | low polyreactivity
41 | QVQLVESGGGLVQAGGSLRLSSAASGRTLVNYAMGCYRQAPGKERELVAAISYSGGSTYYADSVKGRFTISRDYAKNTVYLQMNSLKPEDTAVYYCAAYYYQRYDYWGQGTQVTVSS | high polyreactivity
42 | QVQLVESGGGLVQAGGSLRLSSAASGRTYNVYAMGWSRQAPGKERELVAGITRASTNYADSVKGRFTISRDNAKNTVYLLMNSLKPEVTAVYYCAAKIFPKGDYWGQGTQVTVSS | high polyreactivity
43 | QVQLVESGGGLVQAGGSLRLSSAASGSIFFEYAMRWSRQAPGNEREWVASINRGGGSTYYADSVKGRFTISRDNAKNTVYLQMNSLKPEDTAVYYCAAQWKYRQSYLDYYWGQGTQVTVSS | low polyreactivity
